Experimental findings from patent US20220259330A1 (SUNSHINE GUOJIAN PHARMACEUTICAL SHANGHAI, published 2022) are described below.

The target of experiment [1] is T1, LAG3-ECD-His (human, UniProt P18627 23-450).
T1 construct: extracellular domain; Bought; not shown: polyhistidine tag
T1 sequence (looked up): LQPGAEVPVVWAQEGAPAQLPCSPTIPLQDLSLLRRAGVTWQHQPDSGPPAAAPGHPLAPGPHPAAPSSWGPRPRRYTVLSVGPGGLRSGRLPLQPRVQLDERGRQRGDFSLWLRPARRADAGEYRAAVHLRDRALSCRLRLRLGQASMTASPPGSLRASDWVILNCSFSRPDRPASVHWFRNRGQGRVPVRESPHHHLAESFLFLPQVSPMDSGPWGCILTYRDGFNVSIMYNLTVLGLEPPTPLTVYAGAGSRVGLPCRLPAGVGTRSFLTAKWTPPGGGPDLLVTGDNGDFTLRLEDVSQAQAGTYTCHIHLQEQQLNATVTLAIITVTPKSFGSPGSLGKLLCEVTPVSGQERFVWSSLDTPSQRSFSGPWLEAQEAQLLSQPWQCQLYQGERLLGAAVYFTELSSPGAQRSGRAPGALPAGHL
Briefly: ELISA, plate coated with LAG3-ECD-His. In general terms: In an ELISA, binding on a coated surface is turned into a signal by an enzyme label.

For experiment [2], the target named is T1, LAG3-ECD-His. Briefly: ELISA, LAG3-ECD-His coated.
Experiment [3] deals with TGF-β1 (Sino Biological, Cat. No. 10804-HNAC) (UniProt P01137 279-390). Put plainly: ELISA, plate coated with TGF-β1.
Chain of TGF-β1 (Sino Biological, Cat. No. 10804-HNAC) (P01137 279-390 limits assumed): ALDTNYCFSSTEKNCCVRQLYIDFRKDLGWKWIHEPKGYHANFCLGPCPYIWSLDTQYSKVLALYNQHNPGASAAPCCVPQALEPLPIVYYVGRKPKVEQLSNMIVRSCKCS
The next experiment concerns the target T2, PD1-His (human, UniProt Q15116 25-170).
T2 construct: extracellular domain; In-house protein; also called extracellular domain protein of human PD-1 with a 6*His tag
Put plainly: ELISA, plate coated with PD1-His.

Experiment [4] deals with T3, biotinylated human PD-1 extracellular recombinant protein (Sino Biological, Cat. No. 10377-H08H-B) (human, UniProt Q15116 25-170, biotinylated).
T3 construct: extracellular domain; Bought; detection reagent in the bridging ELISAs
T3 sequence (Q15116 25-170): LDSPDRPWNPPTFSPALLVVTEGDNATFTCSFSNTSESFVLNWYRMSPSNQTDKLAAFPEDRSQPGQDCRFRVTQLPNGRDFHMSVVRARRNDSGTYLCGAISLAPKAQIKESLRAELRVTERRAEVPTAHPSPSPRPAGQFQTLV
Briefly: bridging ELISA: plate coated with TGF-β1, antibody titrated, detected with biotinylated human PD-1 ECD and Streptavidin-HRP; antibody first captured on plate-coated TGF-β1.

T2 sequence (Q15116 other isoform, or with tags, fused parts or gaps): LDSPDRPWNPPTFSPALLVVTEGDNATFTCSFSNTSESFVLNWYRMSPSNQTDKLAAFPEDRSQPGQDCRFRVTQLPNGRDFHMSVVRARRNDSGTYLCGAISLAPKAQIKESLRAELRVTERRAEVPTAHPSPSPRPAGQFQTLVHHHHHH

B1: 5E7-Hu (antibody, human IgG4 S228P, kappa, V domains shown)
VH: EVQLVESGGGLVKPGGSLRLSCAASGFTFSDDYMAWFRQAPGKRLEWVASISHGGDYIYYADNLKGRFTISRDNAKNSLYLQMNSLRAEDTAVYFCSRDRRSIDYWGQGTLVTVSS
VL: DIQMTQSPSSLSASVGDRVTITCRASQDISNYLSWYQQKPGKTIKLLIYYTSRLHSGVPSRFSGSGSGTDYTFTISSLQPEDIATYFCQQGKTLPYTFGQGTKVEIKR
notes: Humanized anti-human LAG-3, IgG4 (S228P), kappa; also called 5E7-Hu-HC+5E7-Hu-LC
For orientation: EC50 means the concentration giving half of the maximal effect. For orientation: EC50 (read off the curve) means the midpoint of the concentration-response curve. Higher therefore signals a need for much substance. B1 registered an EC50 in the experiment with LAG3-ECD-His [1] of 147 pM. Besides, in the experiment with LAG3-ECD-His [2], the “EC50 (read off the curve)” value was around 100 pM.

B2: 14-Fab-127-IgG4 (bispecific antibody)
heavy: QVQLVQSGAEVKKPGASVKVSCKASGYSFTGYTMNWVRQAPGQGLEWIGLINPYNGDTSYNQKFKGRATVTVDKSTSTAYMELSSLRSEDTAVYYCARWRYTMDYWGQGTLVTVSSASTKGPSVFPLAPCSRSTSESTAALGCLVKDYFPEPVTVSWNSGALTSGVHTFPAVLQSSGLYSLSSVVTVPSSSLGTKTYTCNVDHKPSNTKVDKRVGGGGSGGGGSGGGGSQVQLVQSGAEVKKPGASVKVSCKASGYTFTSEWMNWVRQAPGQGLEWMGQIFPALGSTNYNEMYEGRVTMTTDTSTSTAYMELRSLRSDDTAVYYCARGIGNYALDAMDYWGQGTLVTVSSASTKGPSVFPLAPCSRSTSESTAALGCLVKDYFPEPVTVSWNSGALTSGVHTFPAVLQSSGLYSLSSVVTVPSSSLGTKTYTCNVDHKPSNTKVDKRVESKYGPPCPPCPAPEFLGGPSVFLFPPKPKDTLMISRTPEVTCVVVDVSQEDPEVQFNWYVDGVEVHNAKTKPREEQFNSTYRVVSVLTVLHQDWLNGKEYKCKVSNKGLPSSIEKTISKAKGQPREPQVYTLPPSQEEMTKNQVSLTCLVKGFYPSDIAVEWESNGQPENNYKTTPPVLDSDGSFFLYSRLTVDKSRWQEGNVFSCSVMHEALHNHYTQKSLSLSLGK
light: DIVLTQSPASLAVSPGQRATITCRASESVDNYGNSFMNWYQQKPGQPPKPLIYFASNLESGVPARFSGSGSRTDFTLTINPVEADDTANYYCQQNNEAPPTFGQGTKVEIKRTVAAPSVFIFPPSDEQLKSGTASVVCLLNNFYPREAKVQWKVDNALQSGNSQESVTEQDSKDSTYSLSSTLTLSKADYEKHKVYACEVTHQGLSSPVTKSFNRGEC
For the molecule B2, the EC50 in experiment [3] worked out at 152 pM; in the experiment with PD1-His, 387 pM; in experiment [4], 278 pM.
